# Measurements taken from patent publication US20150119254, “NUCLEIC ACID FRAGMENT BINDING TO TARGET PROTEIN” (RIKEN, published 2015).
# B1: IF11A-57 (ssDNA)
# DNA: ATCAGTCCACCTATGTGGGTTGGATGGGGTGTATGTTAGTAGGGCTAAGGAGGTGG
# B2: IF04A-57 (ssDNA)
# DNA: ATCAGTCCACTAATCAGGAAGAAGATAGGGTTTGTCTTATGTTGCCACGCTGGGAG
# B3: contIF-57 (ssDNA)
# DNA: TTCTGTCAATCGATCGTATCAGTCCACAATGGGGTTGGTTGTGTTGGGTGTTGTGT
# B4: IF07aA-57 (ssDNA)
# DNA: ATCAGTCCACTCCTTCTGTCATAGGGCAGGCGCATTTGGTGTAGAGTTTATCTTGG
# B5: VG02aA-57 (ssDNA)
# DNA: ATCAGTCCACATCGAGCGTGAGGTCCGAAAGGCGACTCTTATAACATCAAGTAATG
# B6: IF07bA-57 (ssDNA)
# DNA: ATCAGTCCACTCGGGTCGTTTAATAATGTAGGTATGGGCTAGGCAGCTAGTGGATG
# B7: VG08A-57 (ssDNA)
# DNA: ATCAGTCCACGAGATGGATGGTAGTGGCCGAACGGGGGGGATGGAGAAGCTGGCTG
# B8: VG02bA-57 (ssDNA)
# DNA: ATCAGTCCACATACGCGGGGGTGTTGAAGGGTTAGTCGGAAGTAGTGTGTACAGAG
# B9: VG01A-57 (ssDNA)
# DNA: ATCAGTCCACAAAGTGCTGGGTCCGAATGGCGGGGGGTTAGGCCTCTTTGGGGCGG
# B10: contVG-57 (ssDNA)
# DNA: TCTGTCAATCGATCGTATCAGTCCACAAGCCCGTCTTCCAGACAAGAGTGCAGGGC
# B11: VG20A-57 (ssDNA)
# DNA: TCAGTCCACGGTAAACTGAGTCCGAAGGGGCATGCAGTGAACCCGAATGGGTCCGG
# What was measured:
# IFN-gamma [1] = target: T1, IFN-gamma (UniProt P01579 P01579:24-166); experiment: SPR; Bound 0.14; conditions: tags: PeproTech; chain copies: 2
# T1 sequence (P01579 24-166, one chain of several): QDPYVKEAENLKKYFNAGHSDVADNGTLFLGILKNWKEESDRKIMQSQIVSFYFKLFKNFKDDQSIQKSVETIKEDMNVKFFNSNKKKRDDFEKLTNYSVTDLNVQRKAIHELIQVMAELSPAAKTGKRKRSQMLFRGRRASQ
# IFN-gamma [2] = target: T1, IFN-gamma; experiment: SPR; 150 nM IFN-gamma, 930 s; conditions: tags: PeproTech; chain copies: 2
# Method: (§1) FIGS. 19A to 19C show the SPR sensorgrams wherein 50 nM, 100 nM, or 150 nM IFN-γ was injected. […] Each sensorgram was normalized to the molecular weight of a DNA fragment bound with SPR, the molecular weight of an injected protein, and the amount of the SPR-bound DNA fragment immobilized (RU). The injection time is 480 seconds. The dissociation time is 480 seconds.
# (§2) Five types of sequences were selected from the sequences shown in Table 12 and analyzed for their IFN-γ-binding ability by surface plasmon resonance assay and 57-mer DNA fragments (Table 13) truncated at a primer region. A previously reported 57-mer DNA fragment comprising the DNA sequence of IFN-γ was also prepared and analyzed as a control.
# VEGF-165 [3] = target: T2, VEGF-165 (Homo sapiens, UniProt P15692-4 P15692-4:27-191); experiment: SPR; 25 C; conditions: tags: PeproTech; chain copies: 2 (dimer, concentrations stated in terms of dimer)
# T2 sequence (P15692 other isoform, or with tags, fused parts or gaps): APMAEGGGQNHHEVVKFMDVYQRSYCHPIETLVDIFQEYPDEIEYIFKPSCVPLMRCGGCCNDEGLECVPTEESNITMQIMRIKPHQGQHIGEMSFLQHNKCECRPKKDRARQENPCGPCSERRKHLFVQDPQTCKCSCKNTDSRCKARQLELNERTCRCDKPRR
# IFN-gamma [4] = target: T1, IFN-gamma; experiment: SPR; existing aptamer control; conditions: tags: PeproTech; chain copies: 2
# VEGF-165 [5] = target: T2, VEGF-165; experiment: SPR; existing aptamer control; 25 C; conditions: tags: PeproTech; chain copies: 2 (dimer, concentrations stated in terms of dimer)
# VEGF-165 [6] = target: T2, VEGF-165; experiment: SPR; random control; conditions: tags: PeproTech; chain copies: 2 (dimer, concentrations stated in terms of dimer)
# VEGF-165 [7] = target: T2, VEGF-165; experiment: SPR; 10 nM VEGF-165, 930 s; conditions: tags: PeproTech; chain copies: 2 (dimer, concentrations stated in terms of dimer)
# Method: as §1, with “15A” for “19A”, “15C” for “19C”, “2.5” for “50”, “5” for “100”, “10” for “150”, “VEGF-165” for “IFN-γ”
# as §2, with “8” for “12”, “VEGF-165-binding” for “IFN-γ-binding”, “resonance (SPR)” for “resonance”, “assay using BIACORE 3000 (GE Healthcare Japan Corp.)” for “assay”, “9)” for “13)”, “VEGF-165” for “IFN-γ”
# VEGF-165 [8] = target: T2, VEGF-165; experiment: SPR; previously reported aptamer control; conditions: tags: PeproTech; chain copies: 2 (dimer, concentrations stated in terms of dimer); label: 5' biotin-dT
# Method: For comparison, 98-mer (full length) N43Ds-09-1, full-length DNA fragments N43Ds-09-1(AT) and N43Ds-09-1(G) with the artificial base Ds replaced with a natural base, and a control DNA fragment reported as a VEGF-binding DNA aptamer (VEGF binding DNA 35, 35 mer) were also assayed under the same conditions. As in the full length binding analysis of Example 2, each DNA fragment having biotinylated T added to the end for the direct immobilization of the DNA fragment onto an SA chip (GE Healthcare Japan Corp.) was prepared by chemical synthesis and gel purification. For the immobilization of each DNA fragment onto the sensor chip, a DNA solution diluted with a PBS solution to 25 nM was subjected to folding treatment (90° C. for 3 min→60° C. for 3 min→25° C.), and Nonidet P-40 was then added thereto at a final concentration of 0.05%. The resulting DNA solution (5 μl; corresponding to 1 min) was injected to the SA chip at a flow rate of 5 μl/min to immobilize the DNA fragment onto the chip. […]
# The interaction between the immobilized DNA fragment and VEGF-165 was detected under monitoring by the injection of 12.5 nM, 25 nM, 37.5 nM, 50 nM, 62.5 nM, and 75 nM VEGF-165 solutions (diluted with buffer solution A; in terms of dimer) at the Kinetic Injection mode. […]
# VEGF-165 [9] = target: T2, VEGF-165; experiment: SPR; printed as uM, evidently pM; existing aptamer control; conditions: tags: PeproTech; chain copies: 2 (dimer, concentrations stated in terms of dimer)
# Method: as §2, with “8” for “12”, “VEGF-165-binding” for “IFN-γ-binding”, “resonance (SPR)” for “resonance”, “assay using BIACORE 3000 (GE Healthcare Japan Corp.)” for “assay”, “9)” for “13)”, “VEGF-165” for “IFN-γ”
# (§3) The DNA fragments used in the assay were subjected to curve fitting using BiaEvaluation software attached to Biacore 3000 and reaction models of Langmuir with mass transfer.
# VEGF-165 [10] = target: T2, VEGF-165; experiment: SPR; 25 C; conditions: tags: PeproTech; chain copies: 2 (dimer, concentrations stated in terms of dimer); remark: listed apart in the source
# Method: as §2, with “8” for “12”, “VEGF-165-binding” for “IFN-γ-binding”, “resonance (SPR)” for “resonance”, “assay using BIACORE 3000 (GE Healthcare Japan Corp.)” for “assay”, “9)” for “13)”, “VEGF-165” for “IFN-γ”
# as §3
binder,measurement,setting,value
TCGGGTCATTTAATAATGTAGGTATGGGCTAGGCAGCTAGTGGAT (ssDNA) [IFd1-3A-45],Kd,IFN-gamma [1],> 200 nM
B1,binding signal,IFN-gamma [2],0.46 bound ratio
GTAAACTGCGTCCGAAGGGGCATGCAGTGAACCCGAATGGGTCCG (ssDNA) [VGd1-2A-45],Kd,VEGF-165 [3],0.5 nM
B2,binding signal,IFN-gamma [2],0.08 bound ratio
B3,Kd,IFN-gamma [4],67 nM
B4,binding signal,IFN-gamma [2],0.19 bound ratio
CGATCGTATCAGTCCACAAGCCCGTCTTCCAGACAAGAGTGCAGGGC (ssDNA) [contVG-47],Kd,VEGF-165 [5],0.044 nM
ATGCTAGAGCATTGCGTAGAAGCTTGATATGTTGCTGGCCCGGAC (ssDNA) [Random-45],binding signal,VEGF-165 [6],0.01 bound ratio
B5,binding signal,VEGF-165 [7],0.01 bound ratio
B6,binding signal,IFN-gamma [2],0.05 bound ratio
B7,binding signal,VEGF-165 [7],0.01 bound ratio
TTGCACTCTGTGGGGGTGGACGGGCCGGGTAGATA (ssDNA) [VEGF binding DNA 35],Kd,VEGF-165 [8],> 100 nM
ATCGTATCAGTCCACAAGCCCGTCTTCCAGACAAGAGTGCAGGGC (ssDNA) [contVG-45],Kd,VEGF-165 [5],0.081 nM
B8,binding signal,VEGF-165 [7],0.31 bound ratio
B9,binding signal,VEGF-165 [7],0.37 bound ratio
B10,Kd,VEGF-165 [9],0.046 nM
B11,Kd,VEGF-165 [10],0.22 nM
